Laboratory results published in patent US6428997B1, “Aminopeptidase derived from Bacillus licheniformis and process for preparation of natural type proteins” (LG Chemical Ltd., priority 1997, dated 2002).

Key:
[1] = substrate: CC(C)C[C@H](N)C(=O)Nc1ccc([N+](=O)[O-])cc1; assay: Kinetic parameters of Bacillus licheniformis aminopeptidase (Lineweaver-Burk); assay type: biochemical; conditions: other: Tris-Cl pH 8.0, 37° C., 0.5 U enzyme, absorbance at 405 nm, Lineweaver-Burk plot
Procedure: (§1) Aminopeptidase activities of this invention were measured by the method of Pfleiderer (Pfleiderer, Meth. Enzymol., 19, 514-521, 1970). Precisely, 1 U of enzyme activity defines the enzyme quantity changing 1 absorbance at 405 nm which is measured by the process adding aminopeptidase in 1 ml solution of […] Tris-Cl (pH 8.0) and 2 mM leucine-p-nitroanilide (Sigma, USA), incubating at 37° C. for 1 min, then adding 100 μl of 70% acetic acid to stop the reaction. At that time leucine-p-nitroanilide was dissolved in dimethylsulfoxide (DMSO) to make 100 mM solution.
(§2) In order to compare substrate specificity of aminopeptidase of this invention, 2 kinds of substrate were used. In detail, one was synthetic substrates of p-nitroanilide derivative and purchased from Sigma, USA and the other was oligopeptide such as methionyl oligopeptide of SEQ. ID. NO: 1 which have amino acid sequence similar to N-terminus of methionyl HGH and leucyl oligopeptide of SEQ. ID. NO: 2. The oligopeptides of this invention were synthesized.
(§3) Enzyme reaction of aminopeptidase was performed by the process described in Reference Examples. At that time p-nitroanilide derivative was used as synthetic substrate. Leucine p-nitroanilide was used as substrate to perform the reaction in concentration of 0.03125, 0.0625, 0.125, 0.25, 0.5, 1 mM and methionine p-nitroanilide in 0.125, 0.25, 0.5, 1 mM and aminopeptidase in 0.5 U respectively. Above reactions using leucine-p-nitroanilide proceeded for 2 min and methionine-p-nitroanilide for 40 min. Then 70% acetic acid was added to stop the reactions and absorbance at 405 nm was measured. The product concentration was measured by adopting absorbance constant ε405=9450M^−1 cm^−1.
(§4) In reaction condition mentioned above, initial velocity of enzyme reaction was measured with varying the substrate concentration. Lineweaver-Burk plot was used to determine Km value and Maximum reaction velocity of aminopeptidase from Bacillus licheniformis. In addition kcat and kcat/Km was determined by using Km value and maximum reaction velocity described above.

[2] = substrate: CSCC[C@H](N)C(=O)Nc1ccc([N+](=O)[O-])cc1; assay: as above; assay type: biochemical; conditions: other: Tris-Cl pH 8.0, 37° C., 0.5 U enzyme, absorbance at 405 nm, Lineweaver-Burk plot
Procedure: as §1, §2, §3, §4

B1: Bacillus licheniformis aminopeptidase (Bacillus licheniformis DSM 13 = ATCC 14580) (protein)
chain: KFSKKFNENRAYQTIYHLSETIGPRVTGTAEEKKSAAFIASQMKKSNLKVSTQKFSIPDRLEGTLTVQGNNVPARPAAGSAPTAAEGLAAPLYDAGLGLPGDFTEEAKGKIAVILRGELTFYEKAKNAADAGASGVIIYNNVDSLVPLTPNLSGNKVDIPVVGVKKEDGEKLLSEQEAILKLKAHKNQTSQNVIGVRKAKGVKNPDIVYVTSHYDSVPYAPGANDNASGTSVVLELARILKTVPADKEIRFITFGAEEIGLLGSRHYVSTLSNQEVKRSVANFNLDMVATSWENASQLYINTPDGSANLVWQLSKAASLSLGKDVLFLHQGGSSDHVPFHEAGIDSANFIWREPGTGALEPWYHTPYDTIEHISKDRLKTAGQIAGTAVYNFTKKENRKPSYSSVAQ
For B1, the Km [1] was 739 µM, the kcat [1] was 130 s⁻¹ and the kcat/Km [1] was 176000 M⁻¹ s⁻¹. For the same protein, the Km [2] was 1004 µM, the kcat [2] was 2.59 s⁻¹ and the kcat/Km [2] was 2580 M⁻¹ s⁻¹.
